Values belong to the molecule of their own block, whether it stands above or below them.
Experiments:
PedH = target: T1, PedH (Pseudomonas putida, UniProt Q88JH0); experiment: DCPIP/PMS dye-linked activity titrated with PQQ, one-site binding fit; type: biochemical; details: 10 mM ethanol, 1 µM PrCl3, 25 mM imidazole, 100 mM Tris HCl pH 8, 30°C preincubation
T1 sequence (Q88JH0 28-595): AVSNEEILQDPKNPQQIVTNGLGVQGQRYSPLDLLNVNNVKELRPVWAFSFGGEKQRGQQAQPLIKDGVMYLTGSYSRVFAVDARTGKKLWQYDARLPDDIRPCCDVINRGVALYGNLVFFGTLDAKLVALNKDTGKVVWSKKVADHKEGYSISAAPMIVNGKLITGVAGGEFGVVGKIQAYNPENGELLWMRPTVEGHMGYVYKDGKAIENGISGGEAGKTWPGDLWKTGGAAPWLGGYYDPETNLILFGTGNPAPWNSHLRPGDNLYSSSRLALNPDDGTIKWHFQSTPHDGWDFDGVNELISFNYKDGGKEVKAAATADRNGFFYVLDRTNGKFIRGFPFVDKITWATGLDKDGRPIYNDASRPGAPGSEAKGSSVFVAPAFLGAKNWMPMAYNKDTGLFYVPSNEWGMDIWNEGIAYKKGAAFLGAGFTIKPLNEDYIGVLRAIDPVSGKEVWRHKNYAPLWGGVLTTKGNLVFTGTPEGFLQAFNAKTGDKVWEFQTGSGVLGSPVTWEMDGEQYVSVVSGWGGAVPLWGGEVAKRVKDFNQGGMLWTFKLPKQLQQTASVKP

PedE = target: T2, PedE (Pseudomonas putida, UniProt Q88JH5); experiment: as above; type: biochemical; details: 10 mM ethanol, 1 mM CaCl2, 25 mM imidazole, 100 mM Tris HCl pH 8, 30°C preincubation
T2 sequence (Q88JH5 34-631): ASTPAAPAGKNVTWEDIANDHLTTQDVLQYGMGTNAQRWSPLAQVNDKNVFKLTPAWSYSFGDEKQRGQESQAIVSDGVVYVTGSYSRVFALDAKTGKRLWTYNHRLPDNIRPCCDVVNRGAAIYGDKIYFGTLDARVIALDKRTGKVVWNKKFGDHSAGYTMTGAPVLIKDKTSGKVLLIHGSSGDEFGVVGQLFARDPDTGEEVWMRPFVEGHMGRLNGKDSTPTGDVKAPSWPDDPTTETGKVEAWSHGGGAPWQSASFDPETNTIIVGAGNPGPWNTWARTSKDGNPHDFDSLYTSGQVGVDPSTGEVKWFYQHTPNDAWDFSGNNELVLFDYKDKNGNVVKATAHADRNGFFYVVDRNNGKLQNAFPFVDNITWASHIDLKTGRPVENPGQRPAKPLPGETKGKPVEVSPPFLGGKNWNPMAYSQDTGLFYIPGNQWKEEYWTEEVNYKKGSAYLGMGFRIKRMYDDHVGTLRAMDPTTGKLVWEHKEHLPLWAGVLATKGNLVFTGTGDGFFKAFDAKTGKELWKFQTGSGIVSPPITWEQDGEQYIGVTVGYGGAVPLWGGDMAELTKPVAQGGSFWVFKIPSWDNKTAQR

[1] = substrate: CC=O; experiment: DCPIP/PMS dye-linked colorimetric assay, Michaelis-Menten fit; type: biochemical, Pseudomonas putida; details: 1 µM PrCl3, 1 µM PQQ, 25 mM imidazole, 500 µM PMS, 150 µM DCPIP, 100 mM Tris HCl pH 8, 30°C preincubation
[2] = substrate: OCCc1ccccc1; experiment: as above; type: biochemical, Pseudomonas putida; details: 1 µM PrCl3, 1 µM PQQ, 25 mM imidazole, 500 µM PMS, 150 µM DCPIP, 100 mM Tris HCl pH 8, 30°C preincubation
purified protein = substrate: CCO; experiment: purified protein; details: 1 µM PrCl3, 1 µM PQQ, 25 mM imidazole, 500 µM PMS, 150 µM DCPIP, 100 mM Tris HCl pH 8, 30°C preincubation

Kd (PedH): 41 nM
Kd (PedE): 3.5 µM
Molecule: O=C(O)c1cc(C(=O)O)c2c(n1)C(=O)C(=O)c1cc(C(=O)O)[nH]c1-2 [PQQ]

B1: PedH (Pseudomonas putida KT2440) (protein)
chain: T1 sequence (Q88JH0 28-595)
Km [1]: 2261 ± 457 µM
Km [2]: 329 ± 22 µM
Km (purified protein): 177 µM

Source: article PMC5487730, “Functional Role of Lanthanides in Enzymatic Activity and Transcriptional Regulation of Pyrroloquinoline Quinone-Dependent Alcohol Dehydrogenases in Pseudomonas putida KT2440” (mBio, 2017)
